Assay results: paper doi:10.1101/2024.09.22.614354 (bioRxiv, 2024)
Numbering of substitutions follows the chain as printed. In names and notes the source's numbering stands. Where two headings read alike, the source gives them in different places. Where no end group is shown, it is not given here. TMR = tetramethyl rhodamine dye

B1: Rb^P E533K (domain or fragment)
chain: NTIQQLMMILNSASDQPSENLISYFNNCTVNPKESILKRVKDIGYIFKEKFAKAVGQGCVEIGSQRYKLGVRLYYRVMESMLKSEEERLSIQNFSKLLNDNIFHMSLLACALEVVMATYSRSTSQNLDSGTDLSFPWILNVLNLKAFDFYKVIKSFIKAEGNLTREMIKHLERCEHRIMESLAWLSDSPLFDLIKQSKDREGPTDHLESACPLNLPLQNNHTAADMYLSPVRSPKKKGSTTRVNSTANAETQATSAFQTQKPLKSTSLSLFYKKVYRLAYLRLNTLCERLLSEHPELEHIIWTLFQHTLQNEYELMRDRHLDQIMMCSMYGICKVKNIDLKFKIIVTAYKDLPHAVQETFKRVLIKEEEYDSIIVFYNSVFMQRLKTNILQYASTRPPTLSPIPHIPRS
B2: Rb^P K548N (domain or fragment)
chain: B1 chain with K154E, K169N
B3: TMR-E2F1^TD (peptide of the E2F1 transactivation domain, N-labeled with tetramethyl rhodamine) (peptide)
peptide: {TMR}-GEGIRDLFDCDFGDLTPLD
B4: Rb^P R656Q (domain or fragment)
chain: B1 chain with K154E, R277Q
B5: Rb^P K530I (domain or fragment)
chain: B1 chain with K151I, K154E
B6: Rb^P S474I (domain or fragment)
chain: B1 chain with S95I, K154E
B7: Rb^P H555Y (domain or fragment)
chain: B1 chain with K154E, H176Y
B8: Rb^P S474R (domain or fragment)
chain: B1 chain with S95R, K154E
B9: Rb^P I703F (domain or fragment)
chain: B1 chain with K154E, I324F
B10: Rb^P S534R (domain or fragment)
chain: B1 chain with K154E, S155R

How the values were obtained:
Experiment in all cases: fluorescence polarisation
[1] = molecular target: TMR-E2F1^TD (peptide of the E2F1 transactivation domain, N-labeled with tetramethyl rhodamine)
[2] = molecular target: B3
Rb^P E554K = molecular target: T1, Rb^P E554K (human, UniProt P06400 380-788, E554K)
T1 sequence: B1 chain with K154E, E175K

Rb^P I703F = molecular target: B9
Rb^P S751Y = molecular target: T2, Rb^P S751Y (human, UniProt P06400 380-788, S751Y)
T2 sequence: B1 chain with K154E, S372Y

Rb^P M704V = molecular target: T3, Rb^P M704V (human, UniProt P06400 380-788, M704V)
T3 sequence: B1 chain with K154E, M325V

[3] = molecular target: T4, wild type Rb pocket domain (Rb^P) (human, UniProt P06400 380-788)
T4 sequence: B1 chain with K154E

[4] = molecular target: T4, wild type Rb pocket domain (Rb^P); remark: listed apart in the source
[5] = molecular target: T4, wild type Rb pocket domain (Rb^P); remark: listed apart in the source
[6] = molecular target: B3

Rb^P E544K (from UniProt P06400 380-788) (domain or fragment)
fold weaker binding relative to wild type [1]: 34 fold

B1
fold weaker binding relative to wild type [2]: 59 fold

B2
fold weaker binding relative to wild type [2]: 10 fold

B3
Kd (Rb^P E554K): 1.74 µM
Kd (Rb^P I703F): 0.094 µM
Kd (Rb^P S751Y): 0.028 µM
Kd (Rb^P M704V): 0.046 µM
Kd [3]: 0.017 µM
Kd [4]: 0.022 µM
Kd [5]: 0.014 µM

B4
fold weaker binding relative to wild type [2]: 13 fold

B5
fold weaker binding relative to wild type [2]: 63 fold

B6
fold weaker binding relative to wild type [2]: 27 fold

B7
fold weaker binding relative to wild type [2]: 12 fold

B8
fold weaker binding relative to wild type [2]: 27 fold

B9
fold weaker binding at 37°C than at 25°C [6]: 6 fold
fold weaker binding relative to wild type [6]: 17 fold
fold weaker binding relative to wild type [2]: ~5 fold

B10
fold weaker binding relative to wild type [2]: 820 fold
